Experimental data: patent US20230070786A1 (SPIBER TECHNOLOGIES, published 2023)

Biological target: the molecule itself
Assay: size exclusion chromatography, self-association
Description: The inventors designed a minispidroin composed of NT from E. australis MaSp1 and CT from A. ventricosus MiSp bracketing a short repetitive region from E. australis. The chimeric NT2RepCT protein was produced at unprecedented high levels in shake flask E. coli cultures and the yield after purification was around 125 mg protein/L cell culture. Nearly all protein was soluble after expression and lysis, and bound efficiently to the Ni-NTA column (FIG. 2A). The eluate contained >95% pure NT2RepCT and the size of the protein on the SDS PAGE gel corresponded well to the expected molecular mass (33 kDa) (FIG. 2A). Size-exclusion chromatography indicated a mass of 100 kDa (FIG. 6), in good agreement with a dimer (due to the constitutive dimeric nature of CT) and a non-globular structure of the repetitive part.
A Superdex 200 HR column (Amersham Biosciences) was used to run 200 μl of purifed protein sample in TBS running buffer (20 mM Iris, 150 mM NaCl and 1 mM EDTA, pH 8.0). The flow rate used was 0.5 ml/min. Molecular mass standards Ribonuclease A (13.7 kDa), Carbonic anhydrase (29 kDa), Ovalbumin (43 kDa), Conalbumin (75 kDa), Aldolase (158 kDa) and Ferritin (440 kDa) were used for calibration.

B1: NT2RepCT (other)
chain: MGHHHHHHMSHTTPWTNPGLAENFMNSFMQGLSSMPGFTASQLDDMSTIAQSMVQSIQSLAAQGRTSPNKLQALNMAFASSMAEIAASEEGGGSLSTKTSSIASAMSNAFLQTTGVVNQPFINEITQLVSMFAQAGMNDVSAGNSGRGQGGYGQGSGGNAAAAAAAAAAAAAAAGQGGQGGYGRQSQGAGSAAAAAAAAAAAAAAGSGQGGYGGQGQGGYGQSGNSVTSGGYGYGTSAAAGAGVAAGSYAGAVNRLSSAEAASRVSSNIAAIASGGASALPSVISNIYSGVVASGVSSNEALIQALLELLSALVHVLSSASIGNVSSVGVDSTLNVVQDSVGQYVG
notes: Engineered chimeric spidroin made in E. coli and tested with its His tag; also called chimeric minispidroin NT2RepCT; chimeric NT2RepCT protein
B1: binds.
